Test results taken from patent US20220016127A1, “COMPOSITIONS AND METHODS FOR INDUCING APPENDAGE AND LIMB REGENERATION” (priority 2020, published 2022).

Test system: Aurelia ephyra
Assay: Arm regeneration induction in amputated Aurelia ephyrae
Type: in vivo, Aurelia aurita
Conditions: amputated ephyrae, factor added to artificial seawater upon amputation
Procedure: Amputation. Strobilated ephyrae were fed daily with rotifers (Brachionus plicatilis) until amputation time. 2-3 days old ephyrae were anesthetized in 400 μM menthol and amputated using a razor blade mounted on an x-acto knife handle. After amputation, ephyrae were let to recover in bubbler cones (FIG. 7). Regeneration was assessed at various times until 1-2 weeks after amputation, before onset of maturation to medusa.
Inducing regeneration. Experimental setup. 0.5-1 L sand settling cones were repurposed as jellyfish aquaria (Nalgene Imhoff; FIG. 7). Each cone was equipped with an airline from a Tetra Whisper air pump 100 to create a gentle vertical current (˜1 bubble/sec, see FIG. 30). The conical geometry eliminates stagnant spots, where the ephyrae could get stuck. In this “bubbler cone” setup, the ephyrae were continually in water current either in the upward air bubble-generated current or the downward self-generated current. 500 mL artificial seawater and 30 ephyrae were placed in each cone to avoid crowding and fouling. Artificial seawater was changed every week. Nutrients. […]
Amputation. […] Regeneration was assessed at various times for 1-2 weeks after amputation, before onset of maturation to medusa. […]

B1: Egf: protein tested in the screen (hEGF recombinant, Sigma E9644) (protein, UniProt P01133 23-1207, looked up)
Pro-epidermal growth factor: PQHWSCPEGTLAGNGNSTCVGPAPFLIFSHGNSIFRIDTEGTNYEQLVVDAGVSVIMDFHYNEKRIYWVDLERQLLQRVFLNGSRQERVCNIEKNVSGMAINWINEEVIWSNQQEGIITVTDMKGNNSHILLSALKYPANVAVDPVERFIFWSSEVAGSLYRADLDGVGVKALLETSEKITAVSLDVLDKRLFWIQYNREGSNSLICSCDYDGGSVHISKHPTQHNLFAMSLFGDRIFYSTWKMKTIWIANKHTGKDMVRINLHSSFVPLGELKVVHPLAQPKAEDDTWEPEQKLCKLRKGNCSSTVCGQDLQSHLCMCAEGYALSRDRKYCEDVNECAFWNHGCTLGCKNTPGSYYCTCPVGFVLLPDGKRCHQLVSCPRNVSECSHDCVLTSEGPLCFCPEGSVLERDGKTCSGCSSPDNGGCSQLCVPLSPVSWECDCFPGYDLQLDEKSCAASGPQPFLLFANSQDIRHMHFDGTDYGTLLSQQMGMVYALDHDPVENKIYFAHTALKWIERANMDGSQRERLIEEGVDVPEGLAVDWIGRRFYWTDRGKSLIGRSDLNGKRSKIITKENISQPRGIAVHPMAKRLFWTDTGINPRIESSSLQGLGRLVIASSDLIWPSGITIDFLTDKLYWCDAKQSVIEMANLDGSKRRRLTQNDVGHPFAVAVFEDYVWFSDWAMPSVMRVNKRTGKDRVRLQGSMLKPSSLVVVHPLAKPGADPCLYQNGGCEHICKKRLGTAWCSCREGFMKASDGKTCLALDGHQLLAGGEVDLKNQVTPLDILSKTRVSEDNITESQHMLVAEIMVSDQDDCAPVGCSMYARCISEGEDATCQCLKGFAGDGKLCSDIDECEMGVPVCPPASSKCINTEGGYVCRCSEGYQGDGIHCLDIDECQLGEHSCGENASCTNTEGGYTCMCAGRLSEPGLICPDSTPPPHLREDDHHYSVRNSDSECPLSHDGYCLHDGVCMYIEALDKYACNCVVGYIGERCQYRDLKWWELRHAGHGQQQKVIVVAVCVVVLVMLLLLSLWGAHYYRTQKLLSKNPKNPYEESSRDVRSRRPADTEDGMSSCPQPWFVVIKEHQDLKNGGQPVAGEDGQAADGSMQPTSWRQEPQLCGMGTEQGCWIPVSSDKGSCPQVMERSFHMPSYGTQTLEGGVEKPHSLLSANPLWQQRALDPPHQMELTQ
modifications: Pro-epidermal growth factor
In the case of B1, the “effect on arm regeneration / regeneration frequency (in words)” value is reported as “no effect”.
